Data on 53 molecules can be found in patent publication US20170253633A1 (IMMATICS BIOTECHNOLOGIES, published 2017).

Non-standard residues stand in square brackets, D forms with d. No end group written: not given here. pT = C[C@@H](OP(=O)(O)O)[C@H](N)C(=O)O A value given as a limit tells only on which side of the number the result lay.

One test deals with T1, HLA-A*02:01 (human).
T1 construct: MHC monomer first loaded with a UV-sensitive peptide, which is cleaved by UV and exchanged with the test peptide; captured on streptavidin plates; also called peptide-receptive MHC molecules
Put plainly: UV-ligand exchange + anti-b2m ELISA; ++ = peptide exchange yield >20%. From the text: (§1) Candidate peptides for T cell based therapies according to the present invention were further tested for their MHC binding capacity (affinity). The individual peptide-MHC complexes were produced by UV-ligand exchange, where a UV-sensitive peptide is cleaved upon UV-irradiation, and exchanged with the peptide of interest as analyzed. Only peptide candidates that can effectively bind and stabilize the peptide-receptive MHC molecules prevent dissociation of the MHC complexes. To determine the yield of the exchange reaction, an ELISA was performed based on the detection of the light chain (β2m) of stabilized MHC complexes. The assay was performed as generally described in Rodenko et al. (Rodenko et al., 2006).
(§2) 96 well MAXISorp plates (NUNC) were coated over night with 2 ug/ml streptavidin in PBS at room temperature, washed 4× and blocked forth at 37° C. in 2% BSA containing blocking buffer. Refolded HLA-A*02:01/MLA-001 monomers served as standards, covering the range of 15-500 ng/ml. Peptide-MHC monomers of the UV-exchange reaction were diluted 100 fold in blocking buffer. Samples were incubated for 1 h at 37° C., washed four times, incubated with 2 ug/ml HRP conjugated anti-β2m for 1 h at 37° C., washed again and detected with TMB solution that is stopped with […]. Absorption was measured at 450 nm. Candidate peptides that show a high exchange yield (preferably higher than 50%, most preferred higher than 75%) are generally preferred for a generation and production of antibodies or fragments thereof, and/or T cell receptors or fragments thereof, as they show sufficient avidity to the MHC molecules and prevent dissociation of the MHC complexes.
IIDSSPTAL (gene: ATAD5): the peptide exchange yield fell in the range of 20 to 50%.

As to L[pT]LAKLEKV (gene: C9orf156) [LULAKLEKV], the peptide exchange yield lay in the range of 20 to 50%. Still for that read-out and setting: next, KLAEISLGV (gene: DSG3): 20 to 50%; LLSEDFVSV (gene: SPATA20): 20 to 50%.

The target of the next test is T1, HLA-A*02:01. Nature of the test: UV-ligand exchange + anti-b2m ELISA; +++ = peptide exchange yield >50.
Text: as §1, §2
For ALIGDDVGL (gene: C17orf85), the peptide exchange yield lay in the range of 50 to 75%. On the same count and under the same terms, for ILDEMRAQL (gene: OAS3) the value was 50 to 75%; for YLIGLDPENLAL (gene: CROT), 50 to 75%. For SLQSFIHGV (gene: TMC7), the peptide exchange yield lay within 50 to 75%. Take TVGPGLLGV (gene: VWF): the peptide exchange yield was 50 to 75%. As to GLYEGLDWL (genes: ARF3, TRIM23, ARF1, ARF4), the peptide exchange yield lay in the range of 50 to 75%.

A further test has as its target T1, HLA-A*02:01. Nature of the test: UV-ligand exchange + anti-b2m ELISA; ++++ = peptide exchange yield >75%.
Text: as §1, §2
ILTSIQSLL (genes: UBE2A, UBE2B): the peptide exchange yield is above 75%. For SIAAYNPVV (gene: DHRS2), the peptide exchange yield is above 75%. For the molecule ILEPSLYTV (gene: COPZ1), the peptide exchange yield is above 75%. Turning to SMFGAGLTV (gene: ATP6V0B), the peptide exchange yield was above 75%. On to TLTSKLYSL (gene: UQCR10), for which the peptide exchange yield is above 75%.

Consider GLWHGMFANV (gene: DIP2B), for which the peptide exchange yield was above 75%. On the same count and under the same terms, for NLAGVYSEV (gene: DRG1) the value was above 75%. ALLDGRVQL (gene: AGRN): the peptide exchange yield was above 75%.

On to YLARIQGFQV (gene: STAU2), for which the peptide exchange yield is above 75%. Regarding KLWGQSIQL (gene: SWT1), the peptide exchange yield is above 75%. For YILEGEPGKV (gene: SRP68), the peptide exchange yield was above 75%. On the same count and under the same terms, for ALFPHLLQPVL (gene: CSE1L) the value was above 75%; for SLDVVNLLV (gene: ANKRD50), above 75%; for VILDKYYFL (gene: TMPRSS4), above 75%. As to SLFDGIATGL (gene: DNMT3A), the peptide exchange yield is above 75%.

Take SLSDVRVIV (gene: RALGAPA2): the peptide exchange yield was above 75%. Turning to YLPDSLTQL (gene: LRRC1), the peptide exchange yield was above 75%. On to GVALTVTGV (gene: FLOT2), for which the peptide exchange yield was above 75%.

Turning to FLDDGNQMLL (gene: DYNC2H1), the peptide exchange yield is above 75%.

For AMAELRVVV (gene: CYP4F22), the peptide exchange yield was above 75%. Consider ILLQASVQV (gene: TMPRSS4), for which the peptide exchange yield is above 75%. On the same count and under the same terms, next, FIPDFAVAI (gene: COL6A3): above 75%; YLDEIPPKFSM (gene: TACSTD2): above 75%.

On to GLIDSLMAYV (gene: PKP1), for which the peptide exchange yield is above 75%. Still for that read-out and setting: for GLAHFVNEI (gene: ZMYM2) the value was above 75%; for YLIGQHVTA (gene: FBXO21), above 75%. On to KVFGGFQVV (gene: HES1), for which the peptide exchange yield is above 75%. In the case of FLIESKLLSL (gene: DRC1), the peptide exchange yield was above 75%. For WLSTSIPEA (gene: FASN), the peptide exchange yield was above 75%. With FVFEPPPGV (gene: DYNC1H1), the peptide exchange yield was above 75%. Still for that read-out and setting: next, GLDPLGYEIQL (gene: NUP107): above 75%; SLLGGITVV (gene: SPAG9): above 75%; YTLSKTEFL (gene: S100A11): above 75%. For SLVDARFQL (gene: OSR1), the peptide exchange yield is above 75%.

Turning to SLLRVGWSV (genes: BSCL2, HNRNPUL2), the peptide exchange yield is above 75%. Turning to RLLELLQEA (gene: PROM2), the peptide exchange yield is above 75%. As for GLYSGEVLV (gene: WDR34), the peptide exchange yield is above 75%. For the molecule GLALLYSGV (gene: ATP6V0B), the peptide exchange yield is above 75%.

Consider VLKVFLENV, for which the peptide exchange yield was above 75%. On the same count and under the same terms, for IITDLLRSV (gene: FUBP1) the value was above 75%. IQDPVIFYV (gene: GPR126): the peptide exchange yield is above 75%. TLGVIPESV (gene: USP48): the peptide exchange yield is above 75%. As for FLTPPLLSV (gene: AP2A1), the peptide exchange yield is above 75%.
